Reference: PMC11958657

Columns and labels:
[1] = molecular target: L4-MHC (SIYLYYGL peptide presented by H-2K^b) (mouse | human); assay: ultra-stable biomembrane force probe (U-BFP), force-clamp bond lifetimes; biotinylated pMHC on a streptavidin bead on a red blood cell probe against a TCR-expressing T cell without CD8; adhesion frequency below 20%; DMEM with 0.5% BSA
[2] = molecular target: R4-MHC (SIYRYYGL peptide presented by H-2K^b) (mouse | human); assay: as above
[3] = molecular target: L4-MHC (SIYLYYGL peptide presented by H-2K^b) (mouse | human); assay: micropipette single-cell adhesion frequency assay; TCR on a hybridoma T cell held by a micropipette, brought into contact with a streptavidin-coated biotinylated human RBC carrying biotinylated pMHC; bi-molecular TCR-pMHC (CD8-); zero force; 2D effective constants from the fit of adhesion frequency against contact time
[4] = molecular target: L4-MHC (SIYLYYGL peptide presented by H-2K^b) (mouse | human); assay: ultra-stable biomembrane force probe (U-BFP), force-clamp bond lifetimes; as a3, but the T cell expresses wild-type CD8αβ beside the TCR (TCR–pMHC–CD8 tri-molecular interaction)
[5] = molecular target: R4-MHC (SIYRYYGL peptide presented by H-2K^b) (mouse | human); assay: as above
[6] = molecular target: L4-MHC (SIYLYYGL peptide presented by H-2K^b) (mouse | human)
[7] = molecular target: R4-MHC (SIYRYYGL peptide presented by H-2K^b) (mouse | human)
[8] = molecular target: L4-MHC (SIYLYYGL peptide presented by H-2K^b) (mouse | human); assay: micropipette single-cell adhesion frequency assay; biotinylated pMHC on streptavidin-coated red blood cells against a TCR-expressing T cell; 2D effective binding affinity AcKa; whether CD8 was on the T cells is not stated
[9] = molecular target: R4-MHC (SIYRYYGL peptide presented by H-2K^b) (mouse | human); assay: as above
[10] = molecular target: L4-MHC ( peptide presented by H-2K^b) (mouse | human); assay: SPR
[11] = molecular target: R4-MHC ( peptide presented by H-2K^b) (mouse | human); assay: SPR
[12] = molecular target: R4-MHC (SIYRYYGL peptide presented by H-2K^b) (mouse | human); remark: listed apart in the source
[13] = molecular target: R4-MHC (SIYRYYGL peptide presented by H-2K^b) (mouse | human); assay: ultra-stable biomembrane force probe (U-BFP), force-clamp bond lifetimes; as a3, but the 2C hybridoma cell expresses CD8 with CD8β-Ile2Ala at a level matched to WT CD8

bond lifetime ratio R4-MHC over L4-MHC, high force regime (16–19 pN), without CD8 [2] [fold]	bond lifetime ratio R4-MHC over L4-MHC, low force regime (2–5 pN), without CD8 [2] [fold]	bond lifetime ratio R4-MHC over L4-MHC, medium force regime (9–12 pN), without CD8 [2] [fold]	koff [3] [s⁻¹]	bond lifetime ratio R4-MHC over L4-MHC, medium force regime (9–12 pN), with CD8 [5] [fold]	peak bond lifetime, with CD8 [5] [s]	2D effective binding affinity (AcKa) [8] [μm^4]	2D effective binding affinity (AcKa) [9] [μm^4]	Kd [10] [nM]	Kd [11] [nM]	Substance	further results
–	–	–	–	–	–	–	–	38200	20200	2C-TCR, soluble ectodomains	–
7.55	1.13	1.99	4.22	1.19	5.2	0.00089	0.0013	–	–	m33-TCR	peak bond lifetime (at ~9.62 pN), without CD8 [1]: 1.82 s; peak bond lifetime (at ~12.85 pN), without CD8 [2]: 3.43 s; CD8 enhancement power (bond lifetime with CD8 over without CD8), medium force regime [4]: 5.7 fold; peak bond lifetime, with CD8 [4]: 3.99 s; CD8 enhancement power (bond lifetime with CD8 over without CD8), medium force regime [5]: 3.4 fold; L4 peptide concentration (on RMA-S cells) at which m33 hybridoma T cells release IL-2, with CD8 [6]: 1 nM; R4 peptide concentration (on RMA-S cells) at which m33 hybridoma T cells release IL-2, without CD8 [7]: 100 pM
5.1	1.3	3.38	6.61	10	0.8	3.7e-05	0.0016	–	–	2C-TCR	peak bond lifetime (at ~8.32 pN), without CD8 [2]: 0.3 s; bond lifetime ratio R4-MHC over L4-MHC, medium force regime, with CD8β-Ile2Ala [13]: 4.81; fold reduction of CD8 enhancement power (CD8β-Ile2Ala against WT CD8) [13]: 2 times; peak bond lifetime, with CD8β-Ile2Ala [13]: 0.54 s; CD8 enhancement power (bond lifetime with CD8 over without CD8), medium force regime [5]: 3.04 fold; IL-2 production of 2C hybridoma T cells stimulated by RMA-S cells pulsed with R4 peptide, with CD8 against without CD8 [7]: > 100 fold

The remaining lines, values behind:

Substance	bond lifetime ratio R4-MHC over L4-MHC, high force regime (16–19 pN), without CD8 [2] [fold]	bond lifetime ratio R4-MHC over L4-MHC, low force regime (2–5 pN), without CD8 [2] [fold]	bond lifetime ratio R4-MHC over L4-MHC, medium force regime (9–12 pN), without CD8 [2] [fold]	koff [3] [s⁻¹]	bond lifetime ratio R4-MHC over L4-MHC, medium force regime (9–12 pN), with CD8 [5] [fold]	peak bond lifetime, with CD8 [5] [s]	2D effective binding affinity (AcKa) [8] [μm^4]	2D effective binding affinity (AcKa) [9] [μm^4]	Kd [10] [nM]	Kd [11] [nM]	further results
m67-TCR	2.63	0.34	3.77	4.92	0.96	5.95	0.00099	0.0016	–	–	peak bond lifetime, without CD8 [1]: 2.56 s; peak bond lifetime, without CD8 [2]: 5.94 s; CD8 enhancement power (bond lifetime with CD8 over without CD8), medium force regime [4]: 4.36 fold; peak bond lifetime, with CD8 [4]: 5.09 s; L4 peptide concentration (on RMA-S cells) at which m67 hybridoma T cells release IL-2, with CD8 [6]: 100 pM; R4 peptide concentration (on RMA-S cells) at which m67 hybridoma T cells release IL-2, without CD8 [7]: 10 nM
m33-TCR, soluble ectodomains	–	–	–	–	–	–	–	–	567	187	–
m67-TCR, soluble ectodomains	–	–	–	–	–	–	–	–	96.2	26.3	–
mouse CD8αβ, wild type (from UniProt P01731 28-247; P10300 22-213) (receptor)	–	–	–	–	–	–	–	–	–	–	TCR specificity of 2C hybridoma cells (ratio of IL-2 sensitivities for R4 over L4) with WT CD8 [12]: 65500
mouse CD8αβ with CD8β-Ile2Ala (from UniProt P01731 28-247; P10300 22-213) (receptor)	–	–	–	–	–	–	–	–	–	–	TCR specificity of 2C hybridoma cells (ratio of IL-2 sensitivities for R4 over L4) with CD8β-Ile2Ala [12]: 7070
